Results: article doi:10.1101/2020.12.31.425019 (bioRxiv, 2020)

How the values were obtained:
[1] = target: the molecule itself; experiment: negative-stain EM
[2] = target: the molecule itself; experiment: cross-linking

B1: fPanx1ΔC (frog Pannexin 1 truncated at Lys357, residues 1-357) (domain or fragment, UniProt B3DLA5 1-357, looked up)
chain: MAIAHIATEYVFSDFLLKDPPESKYKGLRLELAVDKLVSCIAVGLPLLLISLAFAQEITLGSQISCFAPTSFSWRQAAYVDSFCWAAVQQKHLSQSDSGNVPLWLHKFFPYILLLVAVLLYLPNLFWRFTAAPHLSSDLKFVMEELDKCYNRDIKDIKAANNLNSSDKRDGLNSPVVSENLQQSLWEIPLSHYKYPIVEQYLKTKNNSYGLIIKYLICRVVTLIIVFTACIYLGYYISLFSLTDEFTCNIRTGILRNDTALPPLVQCKLIAVGVFRLLSYINLIIYVLIMPFIIYAMLVPFRKTANVLKVYEVLPTFSVQQAPSKTYDDHSLFLLFLEENVSELKSYKFLKVLENIK
modifications: glycosylated in insect cells (upper band sensitive to PNGaseF; site not stated)
- stoichiometry N [1]: 7
- stoichiometry N [2]: ~7
